According to paper PMC4230619 (Molecular Biology of the Cell, 2014):

Target: the molecule itself
Experiment: single-molecule TIRF step-intensity counting in live cells

B1: dynamin2-EGFP (natural protein, human (endogenous in SUM159), UniProt P50570 1-870, looked up)
chain: MGNRGMEELIPLVNKLQDAFSSIGQSCHLDLPQIAVVGGQSAGKSSVLENFVGRDFLPRGSGIVTRRPLILQLIFSKTEHAEFLHCKSKKFTDFDEVRQEIEAETDRVTGTNKGISPVPINLRVYSPHVLNLTLIDLPGITKVPVGDQPPDIEYQIKDMILQFISRESSLILAVTPANMDLANSDALKLAKEVDPQGLRTIGVITKLDLMDEGTDARDVLENKLLPLRRGYIGVVNRSQKDIEGKKDIRAALAAERKFFLSHPAYRHMADRMGTPHLQKTLNQQLTNHIRESLPALRSKLQSQLLSLEKEVEEYKNFRPDDPTRKTKALLQMVQQFGVDFEKRIEGSGDQVDTLELSGGARINRIFHERFPFELVKMEFDEKDLRREISYAIKNIHGVRTGLFTPDLAFEAIVKKQVVKLKEPCLKCVDLVIQELINTVRQCTSKLSSYPRLREETERIVTTYIREREGRTKDQILLLIDIEQSYINTNHEDFIGFANAQQRSTQLNKKRAIPNQGEILVIRRGWLTINNISLMKGGSKEYWFVLTAESLSWYKDEEEKEKKYMLPLDNLKIRDVEKGFMSNKHVFAIFNTEQRNVYKDLRQIELACDSQEDVDSWKASFLRAGVYPEKDQAENEDGAQENTFSMDPQLERQVETIRNLVDSYVAIINKSIRDLMPKTIMHLMINNTKAFIHHELLAYLYSSADQSSLMEESADQAQRRDDMLRMYHALKEALNIIGDISTSTVSTPVPPPVDDTWLQSASSHSPTPQRRPVSSIHPPGRPPAVRGPTPGPPLIPVPVGAAASFSAPPIPSRPGPQSVFANSDLFPAPPQIPSRPVRIPPGIPPGVPSRRPPAAPSRPTIIRPAEPSLLD
stoichiometry N: 2
